This is an account of results in patent publication US20230009161A1.

This test addresses recombinant human ErbB2/HER2 Fc chimera protein (R&D Systems, cat no. 1129-ER) (human) (UniProt P04626).

Regarding “IgG1^HER2 (monoclonal anti-HER2 IgG1; Trastuzumab) (antibody)”, the Kd turned out to be 0.72 nM.
